These results are taken from the supplement of paper PMC6755084.

In this data set the test system is F1*sub RNA substrate (template-directed ligation). Kind of data set: fraction ligated after 30 min (ligated reads / total reads); higher = more ligase activity; sequences stand for … in GAGACCGCAACTGAAAAGTTGT…AGTTCTGCACGTAGAAGCAAAAGGC
To be noted: 42 °C. The method in brief:
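The ligase ribozyme variants were produced by PCR amplification of oligo-pool templates, T7 transcription and purification on gel. Their ligated and unligated forms were gel-separated, then reverse transcribed with barcoded primers before MiSeq sequencing. Core bases were filtered at a quality of ≥20, and fraction ligated per variant was ligated reads over total reads.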
On to “TATCACTTGTCGTAAGACACGGATGGGTTGA [3d2231]”, for which the fraction ligated was determined as 0.231.
To “TATCACTTGTCGTAAGACACTGATGGGTTGA [3d2232]” belongs 0.0313; to “TATCACTTGTCGTAAGACACTGGAGGGTTGA [3d2234]”, 0.00473.
Sequence “TATCACTTGTCGTAAGACACTGGATGGGTTA [3d2236]” yielded a fraction ligated of 0.751.
“TATCACTTGTCGTAAGACACTGGATGGGTTG [3d2237]” had a fraction ligated of 0.778.
Sequence “TATCACTTGTCGTAAGACACTGGATGGGTTGA [2d276]” registered a fraction ligated of 0.776.
Consider “TATCACTTGTCGTAAGACACTGGATGGTTGA [3d2235]”, for which the fraction ligated stood at 0.0538.
On to “TATCACTTGTCGTAAGACACTGGTGGGTTGA [3d2233]”, for which the fraction ligated stood at 0.00438.
“TATCACTTGTCGTAAGACACTTATGGGTTGA [3d2238]” gave a fraction ligated of 0.0156.
To “TATCACTTGTCGTAAGACACTTGAGGGTTGA [3d2240]” belongs 0.00563; to “TATCACTTGTCGTAAGACACTTGATGGGTTA [3d2242]”, 0.0227.
“TATCACTTGTCGTAAGACACTTGATGGGTTG [3d2243]” returned a fraction ligated of 0.239.
To “TATCACTTGTCGTAAGACACTTGATGGGTTGA [2d277]” belongs 0.662; to “TATCACTTGTCGTAAGACACTTGATGGTTGA [3d2241]”, 0.0196; to “TATCACTTGTCGTAAGACACTTGGAGGGTTA [3d2249]”, 0.0115.
On to “TATCACTTGTCGTAAGACACTTGGAGGGTTG [3d2250]”, for which the fraction ligated was 0.00522.
As for “TATCACTTGTCGTAAGACACTTGGAGGGTTGA [2d279]”, the figure is 0.0154; as for “TATCACTTGTCGTAAGACACTTGGAGGTTGA [3d2248]”, 0.00668.
For the sequence “TATCACTTGTCGTAAGACACTTGGATGGGTT [3d2253]”, the fraction ligated was 0.239.
Regarding “TATCACTTGTCGTAAGACACTTGGATGGGTTA [2d281]”, the fraction ligated was determined as 0.756.
Turning to “TATCACTTGTCGTAAGACACTTGGATGGGTTG [2d282]”, the fraction ligated amounted to 0.777.
On to “TATCACTTGTCGTAAGACACTTGGATGGTTA [3d2251]”, for which the fraction ligated came to 0.0219.
With “TATCACTTGTCGTAAGACACTTGGATGGTTG [3d2252]”, the fraction ligated came out at 0.036.
Regarding “TATCACTTGTCGTAAGACACTTGGATGGTTGA [2d280]”, the fraction ligated came out at 0.0762.
As for “TATCACTTGTCGTAAGACACTTGGGGGTTGA [3d2244]”, the figure is 0.0227.
In turn, “TATCACTTGTCGTAAGACACTTGGTGGGTTA [3d2246]” registered a fraction ligated of 0.0114.
To “TATCACTTGTCGTAAGACACTTGGTGGGTTG [3d2247]” belongs 0.0184.
Sequence “TATCACTTGTCGTAAGACACTTGGTGGGTTGA [2d278]” had a fraction ligated of 0.0691.
To “TATCACTTGTCGTAAGACACTTGGTGGTTGA [3d2245]” belongs 0.012.
With “TATCACTTGTCGTAAGACACTTGTGGGTTGA [3d2239]”, the fraction ligated stood at 0.00905.
“TATCACTTGTCGTAAGACACTTTAGGGTTGA [3d2256]” had a fraction ligated of 0.0176.
Turning to “TATCACTTGTCGTAAGACACTTTATGGGTTA [3d2258]”, the fraction ligated was found to be 0.0282.
Regarding “TATCACTTGTCGTAAGACACTTTATGGGTTG [3d2259]”, the fraction ligated came out at 0.0149.
As for “TATCACTTGTCGTAAGACACTTTATGGGTTGA [2d283]”, the fraction ligated amounted to 0.0284.
“TATCACTTGTCGTAAGACACTTTATGGTTGA [3d2257]” came in with a fraction ligated of 0.0255.
In turn, “TATCACTTGTCGTAAGACACTTTGAGGGTTA [3d2265]” returned a fraction ligated of 0.0074.
As for “TATCACTTGTCGTAAGACACTTTGAGGGTTG [3d2266]”, the figure is 0.00798; as for “TATCACTTGTCGTAAGACACTTTGAGGGTTGA [2d285]”, 0.00683.
On to “TATCACTTGTCGTAAGACACTTTGAGGTTGA [3d2264]”, for which the fraction ligated is 0.0133.
Take “TATCACTTGTCGTAAGACACTTTGATGGGTT [3d2269]”: the fraction ligated turned out to be 0.017.
As for “TATCACTTGTCGTAAGACACTTTGATGGGTTA [2d287]”, the figure is 0.167; as for “TATCACTTGTCGTAAGACACTTTGATGGGTTG [2d288]”, 0.755; as for “TATCACTTGTCGTAAGACACTTTGATGGTTA [3d2267]”, 0.00859.
On to “TATCACTTGTCGTAAGACACTTTGATGGTTG [3d2268]”, for which the fraction ligated was found to be 0.0103.
Sequence “TATCACTTGTCGTAAGACACTTTGATGGTTGA [2d286]” registered a fraction ligated of 0.0395.
To “TATCACTTGTCGTAAGACACTTTGGAGGGTT [3d2279]” belongs 0.0132; to “TATCACTTGTCGTAAGACACTTTGGAGGGTTA [2d294]”, 0.0266; to “TATCACTTGTCGTAAGACACTTTGGAGGGTTG [2d295]”, 0.0513.
Regarding “TATCACTTGTCGTAAGACACTTTGGAGGTTA [3d2277]”, the fraction ligated amounted to 0.0104.
For the sequence “TATCACTTGTCGTAAGACACTTTGGAGGTTG [3d2278]”, the fraction ligated stood at 0.00797.
To “TATCACTTGTCGTAAGACACTTTGGAGGTTGA [2d293]” belongs 0.0113.
As for “TATCACTTGTCGTAAGACACTTTGGATGGGTT [2d298]”, the figure is 0.772.
As for “TATCACTTGTCGTAAGACACTTTGGATGGTT [3d2281]”, the figure is 0.024; as for “TATCACTTGTCGTAAGACACTTTGGATGGTTA [2d296]”, 0.447; as for “TATCACTTGTCGTAAGACACTTTGGATGGTTG [2d297]”, 0.531.
Sequence “TATCACTTGTCGTAAGACACTTTGGGGGTTA [3d2271]” returned a fraction ligated of 0.0237.
To “TATCACTTGTCGTAAGACACTTTGGGGGTTG [3d2272]” belongs 0.0105; to “TATCACTTGTCGTAAGACACTTTGGGGGTTGA [2d289]”, 0.0225.
As for “TATCACTTGTCGTAAGACACTTTGGGGTTGA [3d2260]”, the fraction ligated amounted to 0.0415.
To “TATCACTTGTCGTAAGACACTTTGGTGGGTT [3d2275]” belongs 0.011; to “TATCACTTGTCGTAAGACACTTTGGTGGGTTA [2d291]”, 0.018.
Turning to “TATCACTTGTCGTAAGACACTTTGGTGGGTTG [2d292]”, the fraction ligated was determined as 0.0944.
To “TATCACTTGTCGTAAGACACTTTGGTGGTTA [3d2273]” belongs 0.0182; to “TATCACTTGTCGTAAGACACTTTGGTGGTTG [3d2274]”, 0.0129; to “TATCACTTGTCGTAAGACACTTTGGTGGTTGA [2d290]”, 0.0232.
As for “TATCACTTGTCGTAAGACACTTTGTGGGTTA [3d2262]”, the figure is 0.00904; as for “TATCACTTGTCGTAAGACACTTTGTGGGTTG [3d2263]”, 0.00738; as for “TATCACTTGTCGTAAGACACTTTGTGGGTTGA [2d284]”, 0.0141.
The sequence “TATCACTTGTCGTAAGACACTTTGTGGTTGA [3d2261]” returned a fraction ligated of 0.0088.
“TATCACTTGTCGTAAGACACTTTTGGGTTGA [3d2255]” registered a fraction ligated of 0.0315.
Sequence “TATCACTTGTCGTAAGACATGGATGGGTTGA [3d2207]” had a fraction ligated of 0.808.
As for “TATCACTTGTCGTAAGACATTGATGGGTTGA [3d2208]”, the fraction ligated is 0.778.
